The values that follow are results of earlier work, collected in patent US9422609B2, “Methods, compositions and devices for maintaining chemical balance of chlorinated water” (priority 2006, dated 2016).

For the data set the following is noted: hydrolysis of cyanuric acid.

B1: cyanuric acid amidohydrolase from strain ADP of Pseudomonas sp.: cyanuric acid amidohydrolase (EC 3.5.2.15) from strain ADP of Pseudomonas sp. (protein, UniProt P58329 1-363, looked up)
Cyanuric acid amidohydrolase: MYHIDVFRIPCHSPGDTSGLEDLIETGRVAPADIVAVMGKTEGNGCVNDYTREYATAMLAACLGRHLQLPPHEVEKRVAFVMSGGTEGVLSPHHTVFARRPAIDAHRPAGKRLTLGIAFTRDFLPEEIGRHAQITETAGAVKRAMRDAGIASIDDLHFVQVKCPLLTPAKIASARSRGCAPVTTDTYESMGYSRGASALGIALATEEVPSSMLVDESVLNDWSLSSSLASASAGIELEHNVVIAIGMSEQATSELVIAHGVMSDAIDAASVRRTIESLGIRSDDEMDRIVNVFAKAEASPDGVVRGMRHTMLSDSDINSTRHARAVTGAAIASVVGHGMVYVSGGAEHQGPAGGGPFAVIARA
Consider B1, for which the Km is 71 µM, the Vmax is 8.4 µmol/min/mg and the turnover rate is recorded as 3 reactions per second.

For orientation: Km means the concentration of substrate that gives half-maximal velocity. By Vmax is commonly meant the rate approached at saturating substrate.
